Reference: the supplement of paper PMC9170038

Tested on: K4 kissing-loop RNA reporter
Test: apparent KD of K4 kissing-loop reporter; higher = weaker reporter binding
Settings: Eterna round: R107
Protocol: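 RNA-MaP round R107: designed RNA switches with theophylline, tryptophan, arginine or FMN aptamers are transcribed on-chip within common flanks. They are titrated with a labelled K4 kissing-loop RNA reporter in RNA-MaP buffer (100 mM Tris pH 7.5, 80 mM KCl, 4 mM MgCl2), without ligand or with the indicated ligand. Median apparent KD per design.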

[1] = input ligand: theophylline 20 uM
[2] = input ligand: tryptophan 2.4 mM
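Also: bound reporter read as fluorescence of individual clusters on recovered sequencing chips by microscopy, with normalized cluster intensities fitted with a binding model.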

UGAUACCAGACGGCCGCCACUGCACCAGUCAAUGACUGAGUGUAGUAAUGCUCAGUGAUGUUGAGUAGGACCGGGUCUGGUAUCU [Mod of Eli's TrypBX 8 v1]
apparent KD of K4 kissing-loop reporter (input ligand: FMN 200 uM): 141 nM | apparent KD of K4 kissing-loop reporter (input ligand: arginine 13.2 mM): 122 nM | apparent KD of K4 kissing-loop reporter (input ligand: none): 128 nM | apparent KD of K4 kissing-loop reporter [1]: 122 nM | apparent KD of K4 kissing-loop reporter [2]: 130 nM

UGAUACCAGACGGCCGCCACUUCCGCAAGUCAAAGACUUGCCAAGGGAAUCGUCCAGUGAUGUUGGAGGACCGGGUCUGGUAUCU [FiskerMod 4 - Jieux - Exclusion - Tryptophan B]
apparent KD of K4 kissing-loop reporter (input ligand: FMN 200 uM): 939 nM | apparent KD of K4 kissing-loop reporter (input ligand: arginine 13.2 mM): 516 nM | apparent KD of K4 kissing-loop reporter (input ligand: none): 1220 nM | apparent KD of K4 kissing-loop reporter [1]: 525 nM | apparent KD of K4 kissing-loop reporter [2]: 587 nM

UGAUACCAGACUGAUACCAGCCACAGAGUCAAGACUCUGAUAAAGGUAACCAGUGAUGUUGGCCCUUGGCAGCAGUCUGGUAUCU [TheoBX 16 #SwitchBubble #StaticStem]
apparent KD of K4 kissing-loop reporter (input ligand: FMN 200 uM): 193 nM | apparent KD of K4 kissing-loop reporter (input ligand: arginine 13.2 mM): 164 nM | apparent KD of K4 kissing-loop reporter (input ligand: none): 166 nM | apparent KD of K4 kissing-loop reporter [1]: 149 nM | apparent KD of K4 kissing-loop reporter [2]: 156 nM

UGAUAGGACAGAAGGAGCGGGAGUGAUGUUCCCAAAAUGGAAGGUCGACAAAGUCGACCCUCCCAGGUAGGUCGCUGUCCUAUCU [ArgBX 6 #SwitchBubble #StaticStem]
apparent KD of K4 kissing-loop reporter (input ligand: FMN 200 uM): 91.3 nM | apparent KD of K4 kissing-loop reporter (input ligand: arginine 13.2 mM): 101 nM | apparent KD of K4 kissing-loop reporter (input ligand: none): 99.6 nM | apparent KD of K4 kissing-loop reporter [1]: 99.2 nM | apparent KD of K4 kissing-loop reporter [2]: 86.7 nM

UGAUAGGACAGAAGGAGCGGGAGUGAUGUUCCCAAGGAUUGGUCUAGCAAAGCUGGACCCUCCCAGGUAGGUCGCUGUCCUAUCU [ArgBX 5 #SwitchBubble #StaticStem]
apparent KD of K4 kissing-loop reporter (input ligand: FMN 200 uM): 195 nM | apparent KD of K4 kissing-loop reporter (input ligand: arginine 13.2 mM): 223 nM | apparent KD of K4 kissing-loop reporter (input ligand: none): 222 nM | apparent KD of K4 kissing-loop reporter [1]: 182 nM | apparent KD of K4 kissing-loop reporter [2]: 191 nM

UGAUAGGACAGAAGGAGCGGUAGUGAUGUUGCCAAAAGUAUAAGGUGUCAAAAGACACCCUGCCAGGUAGGUCGCUGUCCUAUCU
apparent KD of K4 kissing-loop reporter (input ligand: FMN 200 uM): 134 nM | apparent KD of K4 kissing-loop reporter (input ligand: arginine 13.2 mM): 228 nM | apparent KD of K4 kissing-loop reporter (input ligand: none): 187 nM | apparent KD of K4 kissing-loop reporter [1]: 190 nM | apparent KD of K4 kissing-loop reporter [2]: 137 nM

UGAUCUCAGUGAUGUUGAGAUCAAACUGAUACCAGUCAAUUUAGUGACCCUUGGCAGCAGUAUACCAAGGGAUCUUAUGAGAUCA [Theo A SS t5]
apparent KD of K4 kissing-loop reporter (input ligand: FMN 200 uM): 173 nM | apparent KD of K4 kissing-loop reporter (input ligand: arginine 13.2 mM): 152 nM | apparent KD of K4 kissing-loop reporter (input ligand: none): 165 nM | apparent KD of K4 kissing-loop reporter [1]: 162 nM | apparent KD of K4 kissing-loop reporter [2]: 154 nM

UGAUUAAGCAGUGAUGUUGCAAGUAAUGAUACCAGUUAAGAAGAGAACCCUUGGCAGCAUAAAGUGCGCUCUGAUGAGUGUGCUU [whbob_SS_Theo_A_w53]
apparent KD of K4 kissing-loop reporter (input ligand: FMN 200 uM): 101 nM | apparent KD of K4 kissing-loop reporter (input ligand: arginine 13.2 mM): 153 nM | apparent KD of K4 kissing-loop reporter (input ligand: none): 123 nM | apparent KD of K4 kissing-loop reporter [1]: 169 nM | apparent KD of K4 kissing-loop reporter [2]: 95.6 nM

UGAUUGGCGAAAGUAGUGAUGUUACGAAUAUAGGAUAUUAGAGGAAUAAGAAGGAUAAAUGAGAAAUAGGUAAAUUGUUGGUUGG [FMN same state]
apparent KD of K4 kissing-loop reporter (input ligand: FMN 200 uM): 101 nM | apparent KD of K4 kissing-loop reporter (input ligand: arginine 13.2 mM): 51.5 nM | apparent KD of K4 kissing-loop reporter (input ligand: none): 95.5 nM | apparent KD of K4 kissing-loop reporter [1]: 116 nM | apparent KD of K4 kissing-loop reporter [2]: 94.5 nM

UGAUUUAACUGAAGGAGCGGCAAUUGAUAAGUAAAUAUAGUGAUGUUAUAUAAGAUAGAGAGCCAGGUAGGUCGCAGAGGUAUUU [ExArgB.N]
apparent KD of K4 kissing-loop reporter (input ligand: FMN 200 uM): 173 nM | apparent KD of K4 kissing-loop reporter (input ligand: arginine 13.2 mM): 141 nM | apparent KD of K4 kissing-loop reporter (input ligand: none): 154 nM | apparent KD of K4 kissing-loop reporter [1]: 153 nM | apparent KD of K4 kissing-loop reporter [2]: 141 nM

UGCACGGGCUCGGCCGCCACUCCCGCGGGUCGCAAGGUCCGCUACUGAGUGAUGUUCGGUUGGAGGAGGACCGGGAGCCCGUGCA [#2 Exclusion - Tryptophan B Attempt #27 (HarryS)]
apparent KD of K4 kissing-loop reporter (input ligand: FMN 200 uM): 131 nM | apparent KD of K4 kissing-loop reporter (input ligand: arginine 13.2 mM): 110 nM | apparent KD of K4 kissing-loop reporter (input ligand: none): 113 nM | apparent KD of K4 kissing-loop reporter [1]: 112 nM | apparent KD of K4 kissing-loop reporter [2]: 107 nM

UGCCGGGCUGUACGUUACUUAAAUCGCGAUACCAGCGAUACAAUCCGCCCUUGGCAGCGCAGUGAUGUUGCGCGGUCAUUACGGG [theeternabot_exclusion_KL_Theo_A_27]
apparent KD of K4 kissing-loop reporter (input ligand: FMN 200 uM): 100 nM | apparent KD of K4 kissing-loop reporter (input ligand: arginine 13.2 mM): 90.5 nM | apparent KD of K4 kissing-loop reporter (input ligand: none): 95.8 nM | apparent KD of K4 kissing-loop reporter [1]: 103 nM | apparent KD of K4 kissing-loop reporter [2]: 91.4 nM

UGCGCUAUGUCCUAAAAUGUCCUCCGGGAUACCAGAGUCUUUUUAUUCCCUUGGCAGCUUGAGUGAUGUUUGAUGCCGUUCUUGU [nnbvmullin]
apparent KD of K4 kissing-loop reporter (input ligand: FMN 200 uM): 708 nM | apparent KD of K4 kissing-loop reporter (input ligand: arginine 13.2 mM): 294 nM | apparent KD of K4 kissing-loop reporter (input ligand: none): 551 nM | apparent KD of K4 kissing-loop reporter [1]: 355 nM | apparent KD of K4 kissing-loop reporter [2]: 415 nM

UGCGCUGCCUGAGGAUAUAGAAACGAGUGAUGUUCGUGGAUAAGAGCCAGUGAUGUUGGGUUAUUUCUAGAAGGCAGGCAAAGUA [Exclusion FMN B GF7]
apparent KD of K4 kissing-loop reporter (input ligand: FMN 200 uM): 108 nM | apparent KD of K4 kissing-loop reporter (input ligand: arginine 13.2 mM): 98.2 nM | apparent KD of K4 kissing-loop reporter (input ligand: none): 117 nM | apparent KD of K4 kissing-loop reporter [1]: 93.4 nM | apparent KD of K4 kissing-loop reporter [2]: 104 nM

UGCUGGUCAUAGCGUAGUGUGAGCCGCUCACGAGGACCGGUACGGCCGCCACUCGUUACAAAGCAGUGAUGUUGCAAUAGGCUCU [theeternabot_sameState_KL_Trp_A_24]
apparent KD of K4 kissing-loop reporter (input ligand: FMN 200 uM): 332 nM | apparent KD of K4 kissing-loop reporter (input ligand: arginine 13.2 mM): 407 nM | apparent KD of K4 kissing-loop reporter (input ligand: none): 339 nM | apparent KD of K4 kissing-loop reporter [1]: 417 nM | apparent KD of K4 kissing-loop reporter [2]: 156 nM

UGGAGUUGACGAAAAGUCAACUCCAGAGAAGGAGCGGACGAAAGUCCAGGUAGGUCGCUCACUACCAGUGAUGUUGGUACUUGAA
apparent KD of K4 kissing-loop reporter (input ligand: FMN 200 uM): 220 nM | apparent KD of K4 kissing-loop reporter (input ligand: arginine 13.2 mM): 335 nM | apparent KD of K4 kissing-loop reporter (input ligand: none): 255 nM | apparent KD of K4 kissing-loop reporter [1]: 449 nM | apparent KD of K4 kissing-loop reporter [2]: 218 nM
